Data: paper PMC10659539
Where “and” joins values, the source holds several entries; their conditions need not be identical. Equal entries are not always repeated.

Experiments:
[1] = molecular target: GLT-1, transfected in HEK PS DKO cells (UniProt P31596); assay: native gel or EMSA; Blue Native PAGE of HEK PS DKO cells transfected with GLT-1 and pcDNA3.1-GFP or wildtype PS1, lysed with digitonin 5%; blot with anti-GLT-1
[2] = molecular target: GLT-1, transfected in HEK PS DKO cells (UniProt P31596); assay: cross-linking; living HEK PS DKO cells transfected with GLT-1 and empty vector or wildtype PS1; 50 μM DSS in PBS−/− for 30 min at room temperature, quenched with 20 mM glycine; lysed in 1% NP-40 + 0.1% Triton-X; SDS-PAGE and blot with anti-GLT-1

GLT-1 multimers as percent of total GLT-1, with co-expressed PS1 [1]: 95.6%
GLT-1 multimers as percent of total GLT-1, without PS1 [1]: 89.7%
stoichiometry N [1]: 2 and 3
stoichiometry N [2]: 2 and 3
Substance: GLT-1, transfected in HEK PS DKO cells (from UniProt P31596 1-573) (natural protein)
